Test results as given in doi:10.1101/2020.10.28.359091 (bioRxiv, 2020).
Like-named read-outs stand apart in the source and are kept apart here. No end group written: not given here. *: point of attachment. FITC = O=C1OC2(c3ccc(O)cc3Oc3cc(O)ccc32)c2ccc(NC(=S)*)cc21

How the values were obtained:
[1] = biological target: RXR/RAR LBD heterodimer (mouse RXRα LBD with human RARα LBD) (human | mouse) (UniProt P10276); assay: fluorescence polarisation
[2] = biological target: RXR/RAR LBD heterodimer (mouse RXRα LBD with human RARα LBD) (human | mouse) (UniProt P10276); assay: fluorescence polarisation; remark: listed apart in the source
[3] = biological target: T1, RARα ligand-binding domain (RAR LBD) (human, UniProt P10276-1 176-421); assay: fluorescence polarisation
T1 sequence: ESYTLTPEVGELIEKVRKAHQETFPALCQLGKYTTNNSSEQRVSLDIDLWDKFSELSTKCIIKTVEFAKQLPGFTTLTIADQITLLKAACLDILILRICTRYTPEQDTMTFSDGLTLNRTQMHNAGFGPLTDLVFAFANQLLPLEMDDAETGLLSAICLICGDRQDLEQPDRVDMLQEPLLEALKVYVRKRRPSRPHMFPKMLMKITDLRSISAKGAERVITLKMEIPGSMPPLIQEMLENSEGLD

[4] = biological target: T1, RARα ligand-binding domain (RAR LBD); assay: crystal structure
[5] = biological target: T1, RARα ligand-binding domain (RAR LBD); assay: crystal structure; remark: listed apart in the source

Question: For “TIF2 nuclear receptor interaction domain (TIF2_(NRID)), residues 624-773, wild type (domain or fragment)”, which Kd [1] is on record?
Answer: The Kd was 200 nM.

Question: What about the Kd [2] of the same molecule?
Answer: The Kd was 1340 nM.

Question: And the fold decrease of Kd against the apo heterodimer [2]?
Answer: The fold decrease of Kd against the apo heterodimer was 9 fold.

B1: TIF2 NR2 peptide (KHKILHRLLQDSS), unlabelled (peptide)
peptide: KHKILHRLLQDSS
Question: Does B1 bind [3]?
Answer: Result: binds

B2: SRC1 NR2-Ext peptide (RHKILHRLLQEGSPSDITTLSVEPDKK) (peptide)
peptide: RHKILHRLLQEGSPSDITTLSVEPDKK
Question: Does B2 bind [4]?
Answer: Result: binds

B3: TIF2 NR2-Ext peptide (K686-K713), unlabelled (peptide)
peptide: KHKILHRLLQDSSSPVDLAKLTAEATGK
Question: Does B3 bind [5]?
Answer: Result: binds

B4: SRC1 NR2 peptide (RHKILHRLLQEGS), unlabelled (peptide)
peptide: RHKILHRLLQEGS
Question: Does B4 bind [3]?
Answer: Result: binds

B5: FITC-SRC1 NR2 peptide (FITC-LTERHKILHRLLQEGSP) (peptide)
peptide: {FITC}-LTERHKILHRLLQEGSP
Question: Does B5 bind [3]?
Answer: Result: binds
